From patent US20240059799A1 (Pfizer, published 2024) come the findings set out here.

Residue numbers refer to the chain shown, from its start.

To fix the notation:
B1: TL1A-0287 (antibody, human IgG1, kappa, V domains shown)
VH: QVQLVQSGAEVKKPGASVKVSCKASGYDFTYYGVSWVRQAPGQGLEWMGWISTYNDNTHYAQKLQGRVTMTTDTSTSTAYMELRSLRSDDTAVYYCARESYYGSGAHRGGMDVWGQGTTVTVSS
VL: DIQMTQSPSSLSASVGDRVTITCRASQSVSSYLAWYQQKPGKAPKLLIYDASNRATGVPSRFSGSGSGTDFTLTISSLQPEDFATYYCQQRSNWPWTFGQGTKVEIKR
notes: human IgG1 effector-function-minimized / human kappa
B2: TL1A-0291 (antibody, human IgG1, kappa, V domains shown)
VH: B1 VH with D56T, N57G
VL: B1 VL
notes: as for B1
B3: TL1A-0309 (antibody, human IgG1, kappa, V domains shown)
VH: B1 VH with V34I, S35G, D56T, Q62P, K63S
VL: B1 VL
notes: as for B1
B4: TL1A-0305 (antibody, human IgG1, kappa, V domains shown)
VH: B1 VH with V34I, S35G, D56T, N57G
VL: B1 VL
notes: as for B1
B5: TL1A-0296 (antibody, V domains shown)
VH: B1 VH with N55G, D56G, Q62P, K63S, H107F
VL: B1 VL
notes: IgG1 effector-minimized/kappa
B6: TL1A-0297 (antibody, V domains shown)
VH: B1 VH with N55G, D56G, Q62P, K63S
VL: B1 VL
notes: IgG1 effector-minimized/kappa
B7: TL1A-0289 (antibody, human IgG1, kappa, V domains shown)
VH: B1 VH with D56T, N57G, Q62P, K63S
VL: B1 VL
notes: as for B1
B8: TL1A-0299 (antibody, V domains shown)
VH: B1 VH with V34I, S35G, Q62P, K63S
VL: B1 VL
notes: IgG1 effector-minimized/kappa
B9: TL1A-0294 (antibody, human IgG1, kappa, V domains shown)
VH: B1 VH with D56T, Q62P, K63S, H107F
VL: B1 VL
notes: as for B1
B10: TL1A-0292 (antibody, human IgG1, kappa, V domains shown)
VH: B1 VH with D56T, N57V, Q62P, K63S, H107F
VL: B1 VL
notes: as for B1
B11: TL1A-0324 (antibody, human IgG1, kappa, V domains shown)
VH: B1 VH with V34I, D56T, Q62R, K63M, H107Y
VL: B1 VL
notes: as for B1
B12: TL1A-0308 (antibody, human IgG1, kappa, V domains shown)
VH: B1 VH with V34I, S35G, D56T, Q62P, K63S, H107F
VL: B1 VL
notes: as for B1
B13: TL1A-0304 (antibody, human IgG1, kappa, V domains shown)
VH: B1 VH with V34I, S35G, D56T, N57G, H107F
VL: B1 VL
notes: as for B1
B14: TL1A-0311 (antibody, V domains shown)
VH: B1 VH with V34I, S35G, N55G, D56G, Q62P, K63S
VL: B1 VL
notes: IgG1 effector-minimized/kappa
B15: TL1A-0288 (antibody, human IgG1, kappa, V domains shown)
VH: B1 VH with D56T, N57G, Q62P, K63S, H107F
VL: B1 VL
notes: as for B1
B16: TL1A-0298 (antibody, V domains shown)
VH: B1 VH with V34I, S35G, Q62P, K63S, H107F
VL: B1 VL
notes: IgG1 effector-minimized/kappa
B17: TL1A-0300 (antibody, V domains shown)
VH: B1 VH with V34I, S35G, H107F
VL: B1 VL
notes: IgG1 effector-minimized/kappa
B18: TL1A-0307 (antibody, human IgG1, kappa, V domains shown)
VH: B1 VH with V34I, S35G, D56T, N57V, Q62P, K63S
VL: B1 VL
notes: as for B1
B19: TL1A-0306 (antibody, human IgG1, kappa, V domains shown)
VH: B1 VH with V34I, S35G, D56T, N57V, Q62P, K63S, H107F
VL: B1 VL
notes: as for B1
B20: TL1A-0293 (antibody, human IgG1, kappa, V domains shown)
VH: B1 VH with D56T, N57V, Q62P, K63S
VL: B1 VL
notes: as for B1
B21: TL1A-0302 (antibody, V domains shown)
VH: B1 VH with V34I, S35G, D56T, N57G, Q62P, K63S, H107F
VL: B1 VL
notes: IgG1 effector-minimized/kappa
B22: TL1A-0290 (antibody, V domains shown)
VH: B1 VH with D56T, N57G, H107F
VL: B1 VL
notes: IgG1 effector-minimized/kappa
B23: TL1A-0303 (antibody, human IgG1, kappa, V domains shown)
VH: B1 VH with V34I, S35G, D56T, N57G, Q62P, K63S
VL: B1 VL
notes: as for B1
B24: TL1A-0301 (antibody, V domains shown)
VH: B1 VH with V34I, S35G
VL: B1 VL
notes: IgG1 effector-minimized/kappa
B25: TL1A-0295 (antibody, human IgG1, kappa, V domains shown)
VH: B1 VH with D56T, Q62P, K63S
VL: B1 VL
notes: as for B1
B26: TL1A-0310 (antibody, V domains shown)
VH: B1 VH with V34I, S35G, N55G, D56G, Q62P, K63S, H107F
VL: B1 VL
notes: IgG1 effector-minimized/kappa

The target in the experiment is T1, recombinant human TL1A (human, UniProt O95150 71-251).
T1 construct: The ELISA method says only 'recombinant TL1A' coated on plates; homotrimeric cytokine; also called TNFSF15; recombinant TL1A
T1 chain: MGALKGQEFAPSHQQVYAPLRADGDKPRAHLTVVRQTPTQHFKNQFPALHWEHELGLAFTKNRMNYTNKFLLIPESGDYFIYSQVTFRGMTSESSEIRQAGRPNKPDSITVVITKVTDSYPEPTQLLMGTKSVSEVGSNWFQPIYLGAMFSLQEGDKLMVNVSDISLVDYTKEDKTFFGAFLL
The experiment is described as follows: competition ELISA on coated recombinant TL1A; competitor biotinylated TL1A-0002. On the procedure:
For this competition ELISA assay procedure, 96-well high binding plates (Corning, product number 3590) were coated with 1 μg/mL recombinant TL1A in 100 μL/well in Phospate Buffered Saline (PBS) overnight at 4° C. Plates were then blocked in PBS+0.02% casein solution and washed with PBS+0.05% Tween-20 following standard ELISA protocol. […] Plates were washed with PBS+0.05% Tween-20 following standard ELISA protocol, and Streptavidin-HRP (Southern Biotech, product number 7100-05) diluted to 1:10,000 in assay buffer was added to plates and incubated for 25-30 minutes at room temperature. Next, the plates were washed with PBS+0.05% Tween-20 following standard ELISA protocol, and then TMB substrate (BioFX Laboratories, catalog number TMBW-0100-01) was added to plates. Reactions were stopped after approximately 5 minutes by adding 0.18 M ortho-phosphoric acid to each well and absorbance was read at 450 nm.
On the technique in general: In an ELISA, binding on a coated surface is turned into a signal by an enzyme label.
A word on the IC50: it is the point on the concentration scale where inhibition reaches its midpoint. With B1, the “Bioactivity relative to TL1A-0002” value amounted to 2 fold and the 50% inhibitory concentration (IC50) worked out at 10.1 nM.

As for B2, the “Bioactivity relative to TL1A-0002” value was 1.8 fold and the IC50 stood at 9 nM.

For B3, the “Bioactivity relative to TL1A-0002” value came out at 3.3 fold and the half-maximal inhibitory concentration (IC50) was 16.8 nM.

In the case of B4, the “Bioactivity relative to TL1A-0002” value was 2.9 fold and the half-maximal inhibitory concentration (IC50) came out at 14.5 nM.

Regarding B5, the “Bioactivity relative to TL1A-0002” value is 17.3 fold and the IC50 worked out at 87.3 nM.

Consider B6, for which the “Bioactivity relative to TL1A-0002” value was determined as 14.5 fold and the IC50 was found to be 73.1 nM.

For the molecule B7, the “Bioactivity relative to TL1A-0002” value came to 1.6 fold and the half-inhibitory concentration (IC50) turned out to be 7.9 nM.

As for B8, the “Bioactivity relative to TL1A-0002” value amounted to 4.5 fold and the IC50 was found to be 22.9 nM.

For the molecule B9, the “Bioactivity relative to TL1A-0002” value came out at 1.6 fold and the 50% inhibitory concentration (IC50) amounted to 8 nM.

For B10, the “Bioactivity relative to TL1A-0002” value amounted to 1.9 fold and the half-inhibitory concentration (IC50) was 9.6 nM.

As for B11, the “Bioactivity relative to TL1A-0002” value turned out to be 1.2 fold and the IC50 was determined as 6.1 nM.

Take B12: the “Bioactivity relative to TL1A-0002” value is 2.8 fold and the IC50 turned out to be 14.2 nM.

Regarding B13, the “Bioactivity relative to TL1A-0002” value was determined as 3 fold and the IC50 stood at 14.9 nM.

As for B14, the “Bioactivity relative to TL1A-0002” value stood at 6 fold and the IC50 was found to be 30.2 nM.

Regarding B15, the “Bioactivity relative to TL1A-0002” value was determined as 1.6 fold and the half-inhibitory concentration (IC50) is 8 nM.

B16: the “Bioactivity relative to TL1A-0002” value stood at 5 fold and the 50% inhibitory concentration (IC50) was 25.3 nM.

As to B17, the “Bioactivity relative to TL1A-0002” value worked out at 4.7 fold and the half-inhibitory concentration (IC50) was 23.8 nM.

Consider B18, for which the “Bioactivity relative to TL1A-0002” value was 3.4 fold and the IC50 is 17.2 nM.

B19: the “Bioactivity relative to TL1A-0002” value amounted to 3.1 fold and the IC50 came out at 15.8 nM.

Regarding B20, the “Bioactivity relative to TL1A-0002” value stood at 1.9 fold and the IC50 was 9.7 nM.

Take B21: the “Bioactivity relative to TL1A-0002” value was determined as 4 fold and the concentration for half-maximal inhibition (IC50) was 20.4 nM.

As to B22, the “Bioactivity relative to TL1A-0002” value turned out to be 4.2 fold and the IC50 amounted to 21 nM.

For B23, the “Bioactivity relative to TL1A-0002” value was found to be 3 fold and the half-inhibitory concentration (IC50) was determined as 15 nM.

As for B24, the “Bioactivity relative to TL1A-0002” value is 4.9 fold and the half-inhibitory concentration (IC50) was found to be 24.7 nM.

As to B25, the “Bioactivity relative to TL1A-0002” value was found to be 2.4 fold and the concentration for half-maximal inhibition (IC50) was determined as 12.3 nM.

B26: the “Bioactivity relative to TL1A-0002” value is 14.8 fold and the 50% inhibitory concentration (IC50) is 74.7 nM.
